{"source": "patent US20220389120A1", "target": "PD-1 (UniProt Q15116)", "sequence (Q15116 25-167)": "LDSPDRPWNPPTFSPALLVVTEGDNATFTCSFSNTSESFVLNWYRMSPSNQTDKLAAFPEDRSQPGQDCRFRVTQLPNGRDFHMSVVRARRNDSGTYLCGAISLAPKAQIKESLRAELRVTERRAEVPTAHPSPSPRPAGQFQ", "assay": "PD-1 blocking assay", "data": [{"substance": "Keytruda", "values": [{"measurement": "IC50", "value": 0.282, "unit": "nM"}]}]}
